Source: article PMC6531468

How the values were obtained:
[1] = molecular target: IMP3 full length (Homo sapiens) (UniProt O00425); test: EMSA; settings: Hill n 3.1; EMSA: 10 mM Tris-HCl pH 7.5, 150 mM NaCl, 0.5 mM EDTA, 0.5 mM DTT, 0.1% NP-40, 5% glycerol, tRNA+BSA, 5 nM RNA, 30 min RT then ice; ITC/NMR: 20 mM Bis-Tris …
[2] = molecular target: IMP3 KH1-2 (Homo sapiens) (UniProt O00425); test: SELEX; settings: round 4
[3] = molecular target: IMP3 KH3-4 (Homo sapiens) (UniProt O00425); test: SELEX; settings: round 4
[4] = molecular target: IMP3 RRM1-2 (Homo sapiens) (UniProt O00425); test: SELEX; settings: round 2
[5] = molecular target: IMP3 KH1-4 (Homo sapiens) (UniProt O00425); test: SELEX; settings: round 4
[6] = molecular target: IMP3 full length (Homo sapiens) (UniProt O00425); test: SELEX; settings: round 4

IMP3 full length (Homo sapiens), sequence (O00425 whole entry): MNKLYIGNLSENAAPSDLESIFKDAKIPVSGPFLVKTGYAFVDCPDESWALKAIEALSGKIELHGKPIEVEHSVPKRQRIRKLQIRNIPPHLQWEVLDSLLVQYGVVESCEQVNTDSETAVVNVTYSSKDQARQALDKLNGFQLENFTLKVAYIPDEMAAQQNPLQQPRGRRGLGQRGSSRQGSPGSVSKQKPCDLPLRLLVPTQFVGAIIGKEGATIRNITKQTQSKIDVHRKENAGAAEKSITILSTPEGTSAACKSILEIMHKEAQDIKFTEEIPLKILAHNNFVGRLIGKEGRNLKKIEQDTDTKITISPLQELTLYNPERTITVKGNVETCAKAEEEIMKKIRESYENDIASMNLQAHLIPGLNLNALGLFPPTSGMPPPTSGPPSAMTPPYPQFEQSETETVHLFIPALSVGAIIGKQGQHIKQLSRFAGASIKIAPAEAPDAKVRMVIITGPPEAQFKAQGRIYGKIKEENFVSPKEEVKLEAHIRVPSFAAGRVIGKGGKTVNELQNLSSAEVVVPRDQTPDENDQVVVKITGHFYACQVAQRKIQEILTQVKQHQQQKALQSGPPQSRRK
IMP3 RRM1-2 (Homo sapiens), sequence (O00425 1-163): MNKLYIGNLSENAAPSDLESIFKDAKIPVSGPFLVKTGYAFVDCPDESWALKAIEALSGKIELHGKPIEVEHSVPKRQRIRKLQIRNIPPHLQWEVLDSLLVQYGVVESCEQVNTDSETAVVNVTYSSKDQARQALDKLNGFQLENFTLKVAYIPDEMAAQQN
IMP3 KH3-4 (Homo sapiens), sequence (O00425 377-579): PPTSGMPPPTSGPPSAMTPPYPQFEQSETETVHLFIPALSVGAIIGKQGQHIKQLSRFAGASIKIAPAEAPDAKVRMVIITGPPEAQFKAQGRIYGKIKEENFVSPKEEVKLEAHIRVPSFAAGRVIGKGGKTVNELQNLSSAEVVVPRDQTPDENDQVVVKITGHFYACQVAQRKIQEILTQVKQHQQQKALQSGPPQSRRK
IMP3 KH1-4 (Homo sapiens), sequence (O00425 164-579): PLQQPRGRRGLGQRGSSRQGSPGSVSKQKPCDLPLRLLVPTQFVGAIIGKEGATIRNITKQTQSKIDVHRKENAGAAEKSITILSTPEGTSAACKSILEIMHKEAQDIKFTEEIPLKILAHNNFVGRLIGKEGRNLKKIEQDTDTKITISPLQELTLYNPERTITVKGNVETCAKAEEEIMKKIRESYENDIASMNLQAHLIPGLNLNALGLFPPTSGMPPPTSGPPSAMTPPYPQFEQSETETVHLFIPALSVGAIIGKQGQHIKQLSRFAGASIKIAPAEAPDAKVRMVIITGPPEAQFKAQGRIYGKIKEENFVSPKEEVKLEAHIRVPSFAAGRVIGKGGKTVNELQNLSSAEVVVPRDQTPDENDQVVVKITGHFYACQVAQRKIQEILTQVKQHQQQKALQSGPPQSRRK
IMP3 KH1-2 (Homo sapiens), sequence (O00425 164-376): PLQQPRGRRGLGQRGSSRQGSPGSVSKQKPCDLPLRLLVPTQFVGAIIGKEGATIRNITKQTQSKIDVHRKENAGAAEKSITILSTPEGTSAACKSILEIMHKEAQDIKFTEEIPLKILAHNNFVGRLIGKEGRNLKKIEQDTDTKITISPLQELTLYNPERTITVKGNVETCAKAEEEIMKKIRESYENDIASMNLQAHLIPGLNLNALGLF

In the case of HMGA2 WT, the Kd [1] is reported as 13.1 nM.

AACAUA [6-mer AACATA] was tested, and the binding signal (SELEX z-score, GST-corrected) [2] was 2.92 and the binding signal (SELEX z-score, GST-corrected) [3] was 3.48.

In the case of ACACAC [6-mer ACACAC], the binding signal (SELEX z-score, GST-corrected) [2] is reported as 3.26 and the binding signal (SELEX z-score, GST-corrected) [4] is reported as 5.19.

With GGCACA [6-mer GGCACA] the binding signal (SELEX z-score, GST-corrected) [5] was 3.92, the binding signal (SELEX z-score, GST-corrected) [3] was 3.69 and the binding signal (SELEX z-score, GST-corrected) [6] was 4.85.

Substance AUAUAA [6-mer ATATAA] has a binding signal (SELEX z-score, GST-corrected) [3] of 3.89.

In the case of AUCACA [6-mer ATCACA], the binding signal (SELEX z-score, GST-corrected) [4] is reported as 4.39 and the binding signal (SELEX z-score, GST-corrected) [6] is reported as 3.5.

With CAAUCA [6-mer CAATCA] the binding signal (SELEX z-score, GST-corrected) [4] was 5.47.

For AUAAUA [6-mer ATAATA], the binding signal (SELEX z-score, GST-corrected) [3] was 3.54.

UACACA [6-mer TACACA] showed a binding signal (SELEX z-score, GST-corrected) [2] of 2.92.

In the case of AUAACA [6-mer ATAACA], the binding signal (SELEX z-score, GST-corrected) [2] is reported as 3.77, the binding signal (SELEX z-score, GST-corrected) [5] is reported as 3.19 and the binding signal (SELEX z-score, GST-corrected) [3] is reported as 4.15.

In the case of ACAACA [6-mer ACAACA], the binding signal (SELEX z-score, GST-corrected) [2] is reported as 2.86 and the binding signal (SELEX z-score, GST-corrected) [4] is reported as 3.86.

GGCAUC [6-mer GGCATC] gave a binding signal (SELEX z-score, GST-corrected) [6] of 3.48.

AAUGAA [6-mer AATGAA] was tested, and the binding signal (SELEX z-score, GST-corrected) [3] was 3.19.

CAUCAC [6-mer CATCAC] showed a binding signal (SELEX z-score, GST-corrected) [6] of 3.28.

Substance CACAAC [6-mer CACAAC] has a binding signal (SELEX z-score, GST-corrected) [4] of 3.4.

ACACAU [6-mer ACACAT] showed a binding signal (SELEX z-score, GST-corrected) [2] of 3.81, a binding signal (SELEX z-score, GST-corrected) [5] of 3.27 and a binding signal (SELEX z-score, GST-corrected) [4] of 4.49. It also gave a binding signal (SELEX z-score, GST-corrected) [6] of 3.99.

Work on CAAACA [6-mer CAAACA] yielded a binding signal (SELEX z-score, GST-corrected) [4] of 3.91.

Substance ACAUAU [6-mer ACATAT] has a binding signal (SELEX z-score, GST-corrected) [2] of 2.92, a binding signal (SELEX z-score, GST-corrected) [5] of 2.88 and a binding signal (SELEX z-score, GST-corrected) [3] of 3.36.

Work on AAUAAU [6-mer AATAAT] yielded a binding signal (SELEX z-score, GST-corrected) [3] of 3.24.

With AUACAU [6-mer ATACAT] the binding signal (SELEX z-score, GST-corrected) [2] was 3.08 and the binding signal (SELEX z-score, GST-corrected) [5] was 2.8.

AAUACA [6-mer AATACA] gave a binding signal (SELEX z-score, GST-corrected) [2] of 3.44, a binding signal (SELEX z-score, GST-corrected) [5] of 2.77 and a binding signal (SELEX z-score, GST-corrected) [3] of 3.32.

AAAUAA [6-mer AAATAA] gave a binding signal (SELEX z-score, GST-corrected) [3] of 3.39.

AAUAAA [6-mer AATAAA] showed a binding signal (SELEX z-score, GST-corrected) [3] of 3.28.

For GUCGGC [6-mer GTCGGC], the binding signal (SELEX z-score, GST-corrected) [6] was 3.3.

AACACA [6-mer AACACA] gave a binding signal (SELEX z-score, GST-corrected) [2] of 4.09, a binding signal (SELEX z-score, GST-corrected) [5] of 2.92 and a binding signal (SELEX z-score, GST-corrected) [4] of 5.77. The binding signal (SELEX z-score, GST-corrected) [6] was 4.2.

In the case of AAUAUA [6-mer AATATA], the binding signal (SELEX z-score, GST-corrected) [3] is reported as 3.67.

Work on CACACA [6-mer CACACA] yielded a binding signal (SELEX z-score, GST-corrected) [2] of 4.01, a binding signal (SELEX z-score, GST-corrected) [5] of 3.36 and a binding signal (SELEX z-score, GST-corrected) [4] of 6.79. For the same substance, the binding signal (SELEX z-score, GST-corrected) [6] was 4.75.

With ACGGCA [6-mer ACGGCA] the binding signal (SELEX z-score, GST-corrected) [5] was 3.02 and the binding signal (SELEX z-score, GST-corrected) [6] was 4.07.

CAUUCA [6-mer CATTCA] was tested, and the binding signal (SELEX z-score, GST-corrected) [4] was 3.79 and the binding signal (SELEX z-score, GST-corrected) [6] was 3.36.

With CGGCCA [6-mer CGGCCA] the binding signal (SELEX z-score, GST-corrected) [5] was 2.71.

Work on CAUCAU [6-mer CATCAT] yielded a binding signal (SELEX z-score, GST-corrected) [6] of 3.65.

In the case of ACACAA [6-mer ACACAA], the binding signal (SELEX z-score, GST-corrected) [4] is reported as 4.19.

AAUUAA [6-mer AATTAA] gave a binding signal (SELEX z-score, GST-corrected) [3] of 3.41.

For CAACAC [6-mer CAACAC], the binding signal (SELEX z-score, GST-corrected) [4] was 3.39.

ACAUCA [6-mer ACATCA] showed a binding signal (SELEX z-score, GST-corrected) [4] of 3.94 and a binding signal (SELEX z-score, GST-corrected) [6] of 4.02.

CGGCAC [6-mer CGGCAC] showed a binding signal (SELEX z-score, GST-corrected) [5] of 2.99 and a binding signal (SELEX z-score, GST-corrected) [6] of 4.28.

AAUCAU [6-mer AATCAT] showed a binding signal (SELEX z-score, GST-corrected) [4] of 3.82.

In the case of GCACAC [6-mer GCACAC], the binding signal (SELEX z-score, GST-corrected) [6] is reported as 3.25.

Substance CAUACA [6-mer CATACA] has a binding signal (SELEX z-score, GST-corrected) [2] of 3.49, a binding signal (SELEX z-score, GST-corrected) [5] of 2.86 and a binding signal (SELEX z-score, GST-corrected) [4] of 3.6. For the same substance, the binding signal (SELEX z-score, GST-corrected) [6] was 3.76.

ACAUAA [6-mer ACATAA] showed a binding signal (SELEX z-score, GST-corrected) [2] of 3.61, a binding signal (SELEX z-score, GST-corrected) [5] of 2.92 and a binding signal (SELEX z-score, GST-corrected) [3] of 3.74.

With CACAUA [6-mer CACATA] the binding signal (SELEX z-score, GST-corrected) [2] was 3.62 and the binding signal (SELEX z-score, GST-corrected) [5] was 3.19.

For ACAAUA [6-mer ACAATA], the binding signal (SELEX z-score, GST-corrected) [2] was 3.75, the binding signal (SELEX z-score, GST-corrected) [5] was 2.68 and the binding signal (SELEX z-score, GST-corrected) [3] was 3.13.
